Reference: patent publication US20230414709A1 (TRUSTEES OF COLUMBIA UNIVERSITY IN THE CITY OF NEW YORK, published 2023)
Numbering of substitutions follows the chain as printed.

B1: K3 NGAL mutant protein (ligand)
chain: QDSTSDLIPAPPLSSVPLQQNFQDNQFQGKWYVVGLAGNAILREDEDPQKMYATIYELKEDKSYNVTSVLFRDDGCDYWIRTFVPGCQPGEFTLGNIQSYPGLTSYLVRVVSTNYNQFAMVFFKKVSQNQEYFKITLYGRTKELTSELQENFIRFSKSLGLPENNIVFPVPIDQCIDG
notes: Mutant of human NGAL, made in E. coli as for the wild type (GST fusion vector); Runs as monomer and dimer on Western blot; also called K6 (i.e, K3); Mut1
B2: K3Cys protein (ligand)
chain: B1 chain with C87S
notes: only monomers seen; also called K3Cys NGAL; Mut2
B3: wild-type human NGAL (Neutrophil Gelatinase-Associated Lipocalin) (ligand)
chain: B1 chain with S15K, E46K, D73K, D74K, G75K, Q98K, F118H, Q130R, Q149K, N165H
B4: NGAL mutant B4 (ligand)
chain: B1 chain with S15K, D73K, D74K, G75K, F118H, Q130R, Q149K, N165H
B5: NGAL mutant B3 (ligand)
chain: B1 chain with S15K, D73K, D74K, G75K, Q98K, F118H, Q130R, Q149K
B6: NGAL mutant C1 (ligand)
chain: QDSTSDLIPAPPLSKVPLQQNFQDNQFQGKWYVVGLAGNAILREDKDPQTMYATIYELKEDKSYNVTSVLFQKKKCDYWIRTFVPGCQPGEFTLGNIKSYPGLTSYLVRVVSTNYNQHAMVFFKKVSQNQEYFKITLYGRTKELTSELQENFIRFSQSLGLPENHIVFPVPIDQCIDG
B7: NGAL mutant C3 (ligand)
chain: B6 chain with K15S, Q130R

Biological target: the molecule itself
Experiment: Western blot of purified NGAL and of NGAL recovered from mouse urine, homodimer band against monomer band
Procedure: FIGS. 22A-22B. FIG. 22A. Left: Western blot of different species of NGAL. Wild type NGAL forms protein dimers (46-50 KDa) from monomers (at 23-25 KDa). Similarly the Mutant1 (K3 NGAL) forms dimers from monomers. However, Mutant2 (K3Cys) only forms monomers. Right. NGAL proteins (Wt, Mut1 and Mut2) were injected into mice, and the NGAL proteins in the urine (uWt=urinary wild-type protein; uMut1=urinary Mut1 K3 and uMut2=urinary Mut2 K3Cys) were collected at two different time points, and analyzed by Western Blot. For each protein (uWt, uMut1 and uMut2), the 1st lane on the Western blot represents proteins that were collected in the urine 20 min. after the injection and the 2nd lane on the Western blot represents proteins that were collected from the mouse at 180 min. after the injection. Very low levels of uWt appear in urine, whereas higher levels of both uMut1 and uMut2 appear in urine. uMut1 forms both monomers and dimers, whereas uMut2 only forms monomers. FIG. 22B. Mice were injected with NGAL proteins (Wt, Mut1 and Mut2) that were labeled with the dye Alexa Fluor™ 568 (Molecular Probes-Invitrogen), which covalently attaches to the proteins. […]

Binder | binding result
B1 | binds
B2 | no binding

biological target: T1, mouse megalin (mouse, UniProt A2ARV4 26-4660); experiment: cell-based or functional assay
T1 sequence (A2ARV4 26-4660 limits assumed): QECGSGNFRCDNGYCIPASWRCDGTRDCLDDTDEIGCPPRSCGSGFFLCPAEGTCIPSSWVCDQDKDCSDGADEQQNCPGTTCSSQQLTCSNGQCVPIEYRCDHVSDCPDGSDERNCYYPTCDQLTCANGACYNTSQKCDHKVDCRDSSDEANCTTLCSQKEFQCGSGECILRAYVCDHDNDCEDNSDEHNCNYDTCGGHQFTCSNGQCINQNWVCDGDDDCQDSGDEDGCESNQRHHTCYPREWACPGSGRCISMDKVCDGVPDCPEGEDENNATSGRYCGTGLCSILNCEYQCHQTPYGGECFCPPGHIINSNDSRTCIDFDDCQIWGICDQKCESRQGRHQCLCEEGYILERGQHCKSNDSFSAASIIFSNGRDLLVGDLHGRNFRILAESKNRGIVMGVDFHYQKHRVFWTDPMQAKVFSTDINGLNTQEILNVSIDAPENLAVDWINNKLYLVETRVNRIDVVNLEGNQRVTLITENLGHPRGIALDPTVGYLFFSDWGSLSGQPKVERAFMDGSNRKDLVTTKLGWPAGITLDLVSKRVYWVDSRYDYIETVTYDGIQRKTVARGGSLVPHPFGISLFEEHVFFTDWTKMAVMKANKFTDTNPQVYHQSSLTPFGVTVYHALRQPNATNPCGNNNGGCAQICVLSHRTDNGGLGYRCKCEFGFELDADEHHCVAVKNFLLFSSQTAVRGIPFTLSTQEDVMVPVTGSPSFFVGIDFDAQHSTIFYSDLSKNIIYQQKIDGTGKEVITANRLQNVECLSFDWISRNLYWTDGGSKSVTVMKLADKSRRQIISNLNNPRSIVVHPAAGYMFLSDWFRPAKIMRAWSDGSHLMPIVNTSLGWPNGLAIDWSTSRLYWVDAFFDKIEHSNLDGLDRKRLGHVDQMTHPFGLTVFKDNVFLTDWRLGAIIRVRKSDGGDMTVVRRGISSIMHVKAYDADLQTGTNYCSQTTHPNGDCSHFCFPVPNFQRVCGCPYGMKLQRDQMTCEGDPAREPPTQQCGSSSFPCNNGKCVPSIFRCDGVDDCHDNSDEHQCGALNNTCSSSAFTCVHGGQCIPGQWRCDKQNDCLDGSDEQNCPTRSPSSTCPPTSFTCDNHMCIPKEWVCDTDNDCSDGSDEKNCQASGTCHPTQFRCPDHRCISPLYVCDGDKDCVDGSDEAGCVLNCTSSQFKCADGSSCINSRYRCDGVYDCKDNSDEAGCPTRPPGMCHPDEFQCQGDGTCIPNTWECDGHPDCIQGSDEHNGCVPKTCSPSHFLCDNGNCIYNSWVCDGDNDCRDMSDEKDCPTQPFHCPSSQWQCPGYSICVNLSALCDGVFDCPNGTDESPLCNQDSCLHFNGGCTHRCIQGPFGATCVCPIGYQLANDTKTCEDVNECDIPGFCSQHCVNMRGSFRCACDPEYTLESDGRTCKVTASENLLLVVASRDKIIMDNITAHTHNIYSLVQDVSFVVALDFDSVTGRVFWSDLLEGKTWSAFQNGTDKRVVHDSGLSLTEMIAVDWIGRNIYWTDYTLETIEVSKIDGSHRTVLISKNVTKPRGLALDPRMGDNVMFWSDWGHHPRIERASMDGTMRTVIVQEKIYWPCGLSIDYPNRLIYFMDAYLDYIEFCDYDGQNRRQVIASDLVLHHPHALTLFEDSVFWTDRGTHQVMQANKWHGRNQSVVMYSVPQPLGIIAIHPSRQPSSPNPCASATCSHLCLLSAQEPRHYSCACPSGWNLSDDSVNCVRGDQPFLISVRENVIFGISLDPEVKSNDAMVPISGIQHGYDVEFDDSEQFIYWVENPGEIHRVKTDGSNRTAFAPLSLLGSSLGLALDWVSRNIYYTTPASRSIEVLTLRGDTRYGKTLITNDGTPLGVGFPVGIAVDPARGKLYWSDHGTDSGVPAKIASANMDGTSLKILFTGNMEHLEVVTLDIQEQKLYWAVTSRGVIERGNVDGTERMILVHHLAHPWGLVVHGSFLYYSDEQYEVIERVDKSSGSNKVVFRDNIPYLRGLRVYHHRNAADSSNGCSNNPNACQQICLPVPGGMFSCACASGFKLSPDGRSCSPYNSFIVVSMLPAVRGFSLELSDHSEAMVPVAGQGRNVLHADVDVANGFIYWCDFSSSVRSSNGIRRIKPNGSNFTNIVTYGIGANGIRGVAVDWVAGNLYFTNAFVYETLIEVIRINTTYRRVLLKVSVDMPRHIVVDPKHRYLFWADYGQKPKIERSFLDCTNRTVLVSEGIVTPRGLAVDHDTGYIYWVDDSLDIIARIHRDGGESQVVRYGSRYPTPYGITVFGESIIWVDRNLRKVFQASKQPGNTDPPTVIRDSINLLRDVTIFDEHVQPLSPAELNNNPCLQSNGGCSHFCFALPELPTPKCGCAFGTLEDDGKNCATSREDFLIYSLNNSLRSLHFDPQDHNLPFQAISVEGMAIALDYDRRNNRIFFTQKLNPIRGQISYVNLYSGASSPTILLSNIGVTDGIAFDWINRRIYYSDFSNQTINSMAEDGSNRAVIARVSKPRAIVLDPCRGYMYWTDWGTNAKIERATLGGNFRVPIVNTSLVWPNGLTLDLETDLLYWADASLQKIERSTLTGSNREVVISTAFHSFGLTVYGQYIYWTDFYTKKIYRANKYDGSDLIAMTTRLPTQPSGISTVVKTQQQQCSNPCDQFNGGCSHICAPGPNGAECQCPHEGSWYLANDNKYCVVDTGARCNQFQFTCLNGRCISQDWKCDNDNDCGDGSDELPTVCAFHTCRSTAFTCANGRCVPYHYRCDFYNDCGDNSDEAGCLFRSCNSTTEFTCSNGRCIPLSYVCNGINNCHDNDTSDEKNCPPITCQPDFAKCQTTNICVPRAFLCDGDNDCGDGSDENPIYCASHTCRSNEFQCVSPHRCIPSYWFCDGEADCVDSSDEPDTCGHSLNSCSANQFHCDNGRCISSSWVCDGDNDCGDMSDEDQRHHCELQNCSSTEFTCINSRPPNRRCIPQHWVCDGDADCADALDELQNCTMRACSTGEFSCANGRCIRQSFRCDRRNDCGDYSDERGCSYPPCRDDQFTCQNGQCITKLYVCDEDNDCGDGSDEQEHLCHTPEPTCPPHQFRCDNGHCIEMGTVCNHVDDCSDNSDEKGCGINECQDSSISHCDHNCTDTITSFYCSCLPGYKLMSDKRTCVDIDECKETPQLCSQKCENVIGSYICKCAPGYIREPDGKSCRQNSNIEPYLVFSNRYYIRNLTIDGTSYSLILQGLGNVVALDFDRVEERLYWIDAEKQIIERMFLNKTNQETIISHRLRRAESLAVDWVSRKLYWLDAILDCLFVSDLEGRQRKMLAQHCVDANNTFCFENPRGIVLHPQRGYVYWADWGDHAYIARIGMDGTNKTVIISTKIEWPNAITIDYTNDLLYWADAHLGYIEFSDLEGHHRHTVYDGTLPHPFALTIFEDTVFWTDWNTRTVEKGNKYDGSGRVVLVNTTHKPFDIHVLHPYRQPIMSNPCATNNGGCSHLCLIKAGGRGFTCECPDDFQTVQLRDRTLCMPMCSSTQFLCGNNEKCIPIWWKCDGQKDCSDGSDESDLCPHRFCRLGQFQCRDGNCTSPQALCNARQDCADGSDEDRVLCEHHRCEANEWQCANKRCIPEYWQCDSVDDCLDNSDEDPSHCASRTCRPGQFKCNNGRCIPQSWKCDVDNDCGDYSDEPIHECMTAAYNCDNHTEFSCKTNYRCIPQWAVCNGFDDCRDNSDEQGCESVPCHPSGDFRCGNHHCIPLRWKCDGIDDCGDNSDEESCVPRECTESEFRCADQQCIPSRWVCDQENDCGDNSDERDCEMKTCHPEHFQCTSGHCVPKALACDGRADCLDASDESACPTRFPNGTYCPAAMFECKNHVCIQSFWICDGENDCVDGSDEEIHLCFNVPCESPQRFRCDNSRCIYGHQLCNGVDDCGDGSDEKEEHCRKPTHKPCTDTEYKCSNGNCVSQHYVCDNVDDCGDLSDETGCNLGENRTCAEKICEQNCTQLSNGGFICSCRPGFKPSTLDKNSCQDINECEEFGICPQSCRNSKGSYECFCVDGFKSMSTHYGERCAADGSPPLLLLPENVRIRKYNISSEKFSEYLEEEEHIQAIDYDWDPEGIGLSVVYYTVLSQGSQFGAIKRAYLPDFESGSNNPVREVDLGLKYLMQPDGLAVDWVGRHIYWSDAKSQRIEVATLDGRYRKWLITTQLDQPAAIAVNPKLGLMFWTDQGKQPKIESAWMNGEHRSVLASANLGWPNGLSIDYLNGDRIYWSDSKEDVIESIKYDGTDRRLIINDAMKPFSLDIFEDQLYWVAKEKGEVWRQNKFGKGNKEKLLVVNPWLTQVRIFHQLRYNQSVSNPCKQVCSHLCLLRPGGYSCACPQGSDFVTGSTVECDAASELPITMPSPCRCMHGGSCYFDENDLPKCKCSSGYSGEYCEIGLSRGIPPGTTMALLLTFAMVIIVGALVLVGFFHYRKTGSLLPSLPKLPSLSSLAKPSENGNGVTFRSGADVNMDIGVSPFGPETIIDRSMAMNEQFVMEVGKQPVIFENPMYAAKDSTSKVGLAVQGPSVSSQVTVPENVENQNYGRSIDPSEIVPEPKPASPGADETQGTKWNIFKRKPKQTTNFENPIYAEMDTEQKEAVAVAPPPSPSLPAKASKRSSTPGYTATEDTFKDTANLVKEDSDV

Binder | percent of injected Ngal:Ent:59FeIII complex delivered to mouse urine in 3 hrs
B1 | 23%
B3 | < 0.1%
B2 | ~100%

biological target: T1, mouse megalin; experiment: cell-based or functional assay; remark: another data set of the same source

Binder | Accumulation 3 hours after i.p. injection (%): Urine (Ngal-enterochelin-55Fe3+ complex, C57BL/6 mice)
B1 | 19.6%
B4 | 0.13%
B5 | 0.3%
B6 | 0.72%
B7 | 0.44%
